One block for each substance: values may come before it.
What was measured:
[1] = biological target: gastrin-releasing peptide receptor (GRPR) on rat preBotC neurons (rat) (UniProt P52500)
[2] = biological target: neuromedin B receptor (NMBR) on mouse preBotC neurons (mouse) (UniProt O54799)
[3] = biological target: gastrin-releasing peptide receptor (GRPR) on rat preBotC neurons (rat) (UniProt P52500); remark: listed apart in the source
[4] = biological target: neuromedin B receptor (NMBR) on rat preBotC neurons (rat) (UniProt P24053)
[5] = biological target: gastrin-releasing peptide receptor (GRPR) on rat preBotC neurons (rat) (UniProt P52500); remark: listed apart in the source
[6] = biological target: neuromedin B receptor (NMBR) on rat preBotC neurons (rat) (UniProt P24053); remark: listed apart in the source
[7] = biological target: neuromedin B receptor (NMBR) on rat preBotC neurons (rat) (UniProt P24053); remark: listed apart in the source
[8] = biological target: gastrin-releasing peptide receptor (GRPR) on mouse preBotC neurons (mouse) (UniProt P21729)
NMBR [9] = biological target: T1, NMBR (Rattus norvegicus, UniProt P24053); experiment: Sighing and breathing of urethane-anesthetized rats after bilateral preBötC injection (NMB pathway); type: in vivo; details: 3 μM into preBötC
T1 construct: from tissue; host or cells: preBötC of the ventral medulla of living anesthetized Sprague Dawley rats
T1 sequence (P24053 1-390): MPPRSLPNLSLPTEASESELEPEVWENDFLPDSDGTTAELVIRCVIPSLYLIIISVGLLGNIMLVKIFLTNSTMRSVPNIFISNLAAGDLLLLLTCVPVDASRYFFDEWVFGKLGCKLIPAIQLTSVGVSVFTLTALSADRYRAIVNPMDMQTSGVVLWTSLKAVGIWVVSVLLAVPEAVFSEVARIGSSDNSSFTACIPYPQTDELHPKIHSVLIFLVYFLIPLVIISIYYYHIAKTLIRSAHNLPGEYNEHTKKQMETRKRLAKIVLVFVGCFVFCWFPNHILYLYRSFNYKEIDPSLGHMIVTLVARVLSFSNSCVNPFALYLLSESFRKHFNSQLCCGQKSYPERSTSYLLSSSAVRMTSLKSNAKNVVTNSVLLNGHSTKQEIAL
Experimental: Sigh monitoring and analysis. For awake animals, individual animals were placed in a whole body plethysmography chamber (Buxco) at room temperature (22° C.) in 21% O2 (for normoxia) or 8% O2 (for hypoxic challenge) balanced with N2. Sighs were identified in plethysmography traces by the characteristic biphasic ramp, the augmented flow in the second phase of the inspiratory effort and the prolongation of expiratory time following the event. Sighs were also confirmed by visual monitoring of breathing behavior. Given the high amplitude and distinctive waveform of sighs relative to standard eupneic breaths, sighs were unambiguously identified by both visual and computer-assisted scoring; no difference was detected in direct comparisons between methods or observers so visual scoring was used. Female 8 week old mice (Nmbr^−/−, Grpr^−/−, or C57BL/6 as wild type control) were allowed to acclimate for 10 minutes in the chamber, and then the first fifteen recorded sighs were used to calculate the sigh rate. […] Rats were allowed to acclimate in the chamber for ˜1 hr, and then baseline sigh rate and respiratory frequency were calculated for the next 2 hrs. For hypoxic (8% O2) challenge, analysis was continued for 30 minutes under the hypoxic condition. For anesthetized rats, the trachea was cannulated and connected to a pneumotachograph (GM Instruments) to record airflow. A flow calibration was performed after every experiment along with a calculation of tidal volume (VT) by digital integration. To monitor diaphragm activity, wire electrodes (Cooner Wre) were implanted into the diaphragm and electromyogram (EMG) signal sampled at 2 kHz (Powerlab 16SP; AD Instruments). Signal was rectified and digitally integrated (time constant of 0.1) to obtain a moving average using LabChart Pro 8 (AD Instruments) and Igor Pro 6 (Data Matrix) software. Sighs were identified in the airflow measurements as above and validated by double peaks in the EMG recordings.
PreBötC injection of NMB and GRP agonists and antagonists. […]

NMBR [10] = biological target: T2, NMBR (Mus musculus, UniProt O54799); experiment: Doublets (in vitro sigh signature) in explanted preBötC brain slices, NMB effect; type: cell-based; details: for doublet frequency increase: neonatal mouse preBötC slices
T2 construct: from tissue; host or cells: 550-μm transverse medullary slices with the preBötC, neonatal C57BL/6 mice (P0-5)
T2 sequence (O54799 1-390): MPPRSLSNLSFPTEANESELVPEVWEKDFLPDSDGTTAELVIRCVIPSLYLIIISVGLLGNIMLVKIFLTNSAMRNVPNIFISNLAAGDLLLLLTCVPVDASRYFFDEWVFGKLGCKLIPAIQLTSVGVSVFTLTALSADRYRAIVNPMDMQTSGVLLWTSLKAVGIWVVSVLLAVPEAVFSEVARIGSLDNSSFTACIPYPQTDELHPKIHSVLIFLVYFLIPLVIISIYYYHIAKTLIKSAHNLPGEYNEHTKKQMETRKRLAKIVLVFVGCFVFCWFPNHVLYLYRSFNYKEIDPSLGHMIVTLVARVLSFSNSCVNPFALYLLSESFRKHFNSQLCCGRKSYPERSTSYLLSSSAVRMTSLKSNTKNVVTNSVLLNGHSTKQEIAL
Experimental: In vitro slice preparation, recording, and analysis. Rhythmic 550-μm-thick transverse medullary slices containing the preBötC and XII nerve from neonatal C57BL/6 mice (P0-5) were prepared as described previously (Kam et al., 2013). The medullary slice was cut in artificial cerebrospinal fluid (ACSF) containing (in mM): 124 NaCl, 3 KCl, 1.5 CaCl2, 1 MgSO4, 25 NaHCO3, 0.5 NaH2PO4, and 30 D-glucose, equilibrated with 95% O2 and 5% CO2 (4° C., pH=7.4). For recording, extracellular K+ was raised to 9 mM to replace excitatory afferent drive lost in the cutting process. Slices were perfused at 27° C. and 4 ml/min and allowed to equilibrate for 30 minutes. Respiratory activity reflecting suprathreshold action potential (AP) firing from populations of neurons was recorded as XII bursts from either XII nerve roots and as population activity directly from the preBötC using suction electrodes and a MultiClamp 700A or 700B (Molecular Devices, Sunnyvale, Calif., USA), filtered at 2-4 kHz and digitized at 10 kHz. Digitized data were analyzed off-line using custom procedures written for IgorPro (Wavemetrics, Portland, Oreg., USA). Activity was full-wave rectified and digitally integrated with a Paynter filter with a time constant of 20 ms with either custom built electronics or using custom procedures in MATLAB (Mathworks, Natick, Mass., USA). Burst detection and analysis of respiratory-related activity recorded in full-wave rectified XII output or preBötC population recordings were performed using custom software written in IgorPro. Burst parameters were normalized to the mode of the data in the baseline condition. Although there are several proposed definitions of sighs in slice preparations, here we used “doublets” (double-peaked bursts) as the in vitro signature of sighs because, in our preparations, doublets detected both in preBötC neural population activity measurements and cranial nerve XII output recordings shared the increased inspiratory and expiratory duration of sighs. […] All doublets were verified by visual inspection to exclude multipeaked bursts and two bursts that were too far apart. Measured doublet intervals were converted to a calculated per hour doublet rate.

Substance: bombesin-saporin (saporin conjugated with bombesin)
basal sigh rate after ablation of receptor-expressing preBotC neurons in rats [3]: 95%
basal sigh rate after ablation of receptor-expressing preBotC neurons in rats [4]: 95%
hypoxia-induced sigh rate (8% O2) five days after injection in rats [5]: 5.1 h⁻¹
hypoxia-induced sigh rate (8% O2) five days after injection in rats [6]: 5.1 h⁻¹

Substance: saporin conjugated with a non-targeted peptide (blank SAP)
basal and hypoxia-induced sigh rate in control rats [5]: 140 h⁻¹
basal and hypoxia-induced sigh rate in control rats [6]: 140 h⁻¹

Substance: gastrin releasing peptide (GRP) neuropeptide
doublets (in vitro signature of a sigh) in mouse preBotC slices [8]: 1.7 fold

Substance: neuromedin B [NMB]
change in respiratory rate (frequency, f) (NMBR [9]; bilateral NMB injection 100 nl, anesthetized rat): little change
sighing increased (fold) (NMBR [9]; bilateral microinjection 100 nl, anesthetized adult rats, n=5): 6-17 fold
effect on sighing persisted after injection (NMBR [9]; bilateral microinjection 100 nl, effect peaked several minutes after injection): 10 to 15 min
doublet frequency increase (NMBR [10]; 10 nM, p=0.005, n=7): 1.7 fold
doublet frequency increase (NMBR [10]; 30 nM, p=0.003, n=7): 2 fold
overall frequency of bursts and doublets together (NMBR [10]; NMB on preBötC slices, p=0.2, n=7): unchanged
fraction of total events that are doublets (NMBR [10]; preBötC slice, p<0.05, n=7): increasing
interval following a doublet (NMBR [10]; preBötC slice, p<0.05, n=7): decreasing

The remaining lines, values ahead:

basal sigh rate after bilateral preBotC injection in anesthetized rats [1]: 50%
Substance: GRPR antagonist RC3095

doublet frequency (in vitro signature of a sigh) in mouse preBotC slices [2]: 2 fold
Substance: neuromedin B (NMB) neuropeptide

basal sigh rate after bilateral preBotC injection in anesthetized rats [7]: 50%
Substance: NMBR antagonist BIM23042
